Experiment: yeast display, Sf9 membrane polyspecificity reagent, FACS + sequencing; frameworks hold sequencing errors
How it was run: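 A synthetic nanobody library was expressed on Saccharomyces cerevisiae BJ5465 by galactose induction for 36–48 hours. The library was stained for 1 hour at 4 °C with 10% biotinylated, detergent-solubilized Sf9 membrane reagent and enriched with streptavidin microbeads before FACS. Low and high (top ~1%) gates were set on anti-HA fluorescence for expression and streptavidin fluorescence for reagent binding, and each polyreactivity label reflects the gate of origin.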

| Sequence | polyreactivity (PSR sort gate) |
| --- | --- |
| QDQLVESVGDLVQAGGSLRLSCAASGGIFQKYVMGWYRQAPGKERELVARITSVGSTYYADSVKGRFTISRDNAKNTVYLQMNSLKPEDTAVYYCNAELYRRSQGYRFTAFDYWGQGTQVTVSS | low polyreactivity |
| QDQLVESVGGLVQAGGSLRLIFAASGSILTFYAMGWYRQAPGKERELVAAITWRGCSTYYADSVKGRFTISRDNEKNTVYLQMNSLKPEDTAVYYCAAERYGPRYDYWGQGTQVTLSS | high polyreactivity |
| QDQLVESVGGLVQAGGSLRLSCAASGFTFYNYAMGWYRQAPGKERELVAAISWNGGSTYYADSVKGRFTISRDNAKNTVYLQMNSLKPEDTAVYYCNADISQRTRGYYYVWWSRMDYWGQGTQVTVSS | low polyreactivity |
| QDQLVESVGGLVQAGGSLRLSCAASGLIFSRNVMGWYRQGPGTERELVAAITRSGGSTYYADSVKGRFTISRDNAKNTVYLQMNSLKPVDTAVYYCAASRFNYVYLLKGDYWGQGTQVTVSS | high polyreactivity |
| QDQLVESVGGLVQAGGSLRLSCAASGRIVKYAMGWYRQAPGKERELVAAISGSGGTTYYADSVKWRFTISRDNAKNTVYLQMNSQKPEDTAVYYCNKTPRNLRILQHSSQSMDYWGQGTQVTVSS | high polyreactivity |
| QDQLVESVGGLVQAGGSLRLSSAASGFIFYLYAIGWDRQAPGKERDLVAAITRRGGSTYYEDSVKGRFTISRDNAKNTVYLQMNSLKPEDTAVYDCAADHYGFFSAGDFDYWGQGTQVNVSS | high polyreactivity |
| QDQLVESVVCLVQAGLSLRLSGASSVRIFRYYAMGWYRQAHGKERELVAAINSDGRTYYADSVKGRFTISRDNANNTVYLQMNSLKPEDTAVYYCAADHHSYRYGGYYYWGQGTQVTVAS | low polyreactivity |
| QDQLVESWGGLVQAGCSLRLTCAASGSTFWWYAMGWNRQAPGKQREFDAPINWSGSRTYYADSVKGRFTISRDNAKNTVYLQINSLNPEDTAVYYCAAVGRWGVTGSHHDAYDYWGQGTQVTVSS | high polyreactivity |
| QDQLVESWGGLVQAGGSLRLSCAASGFTFNKYAMGWYRQAPGKERELVAAISSSGGRTSYADSVKGRFTISRDNAKNTVYLQMNSLKPEDTAVYYCNKVSTADMGYWGHGTQVTVSS | high polyreactivity |
| QDQLVESWGGLVQAGGSLRLSCASSGITVYGYTMGWYRQAPGKERELVAGISRGGSTYYADSVKGRFTISRDNAKNTVYLQINSLKPEDTAVYYCAVESFYRHASLYDYWGQGTQVTVSS | high polyreactivity |
| QDQLVETGGGLVQAGGSLRLSCAASRNTFAQKAMGRSRQAPGKERELVAAITDGTSTNYADSVKGRFTISRDNAKNTVYLQMNSLKPEDKAVYYCAAESLYTLFYWGYDYWGQGTQVTVSS | low polyreactivity |
| QDQLVETGLGLVQAGGSLRLSLAASGRTFSYAKAWYRQEPGKERELVAAITKRGGSTNFADSVKGRFTISRDNAKNTVYLQMNSLKPEDTAVYYCATDPYHGSYLTYGRMDYWGQGTQVTVSS | high polyreactivity |
| QDQLVQSGGGLVQAGGSLRLSCDASGGMFDSNAMGRYRQPPGKERELVAAISDSGGSTYYADSVKGRFTISRDNAKNTVYLQMNSLKPEDTAVYYCAGDSDYHFVNYRFGMDYWGQGTQVTVSS | low polyreactivity |
| QDQLVVSGGGLFQAVGSLRLICAASGIFRSYAMGWYRQAPGKERELVAAITGGASGTYYADSVKGRFTISRDNAKNTVYLQMNSLKPEDTAVYFCAAVNRVYFPFRLQVIYGSWGQGTQVTVSS | high polyreactivity |
| QDQRVESGGGLVQAGGSLRLSCAASGITLEFYAMGWYRQAPGNERELVARIRSGGSTNYAVSVKGRFTISRDNAKNTVYLQMNSLKPDDTAVYYCAAYLRTDRYGYWGQGTQVTVSS | high polyreactivity |
| QDQRVESGGGLVQAGGSLRLSCAASGRIFGTYTMGWYRQAPGKERELVAAITTGGITNYADSVKGRFTISRDNAKNTVYLQMYSLKPEDTAVYYCNARWDYGAYEYWGQGTQVTVSS | low polyreactivity |

From the nanobody polyreactivity screen of Harvey et al. (2022)
